The results in this text go back to article PMC10778272 (2023).

The target of assay [1] is T1, GST-Synm-CT (fusion protein of the carboxy-terminus of synemin, amino acids 1464-1565, with GST) (Homo sapiens (Human), UniProt O15061).
T1 chain: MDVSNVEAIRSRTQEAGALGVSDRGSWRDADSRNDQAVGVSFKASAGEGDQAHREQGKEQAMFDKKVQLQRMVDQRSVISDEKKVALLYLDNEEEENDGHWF
The assay is described as follows: Western blot overlay.

In assay [2] the target is T2, GST-Synm-CTΔ (carboxy-terminally truncated synemin, amino acids 1464-1533, fused to GST) (Homo sapiens (Human), UniProt O15061).
T2 chain: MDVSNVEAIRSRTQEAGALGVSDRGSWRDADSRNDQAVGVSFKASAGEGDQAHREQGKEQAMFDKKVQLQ
The assay is described as follows: Western blot overlay. Background: A western blot detects proteins with antibodies after separation by electrophoresis.

B1: T7-tagged PDZ domain of SYNPO2 (protein)
chain: MGTGDFICISMTGGAPWGFRLQGGKEQKQPLQVAKIRNQSKASGSGLCEGDEVVSINGNPCADLTYPEVIKLMESITDSLQMLIKRPSSGISEALISENENKNLEHLTHGGYVESTTLQIRPATKTQCTEFFLAPVKTEVPLAENQRSGPDCAGSLKEETGPSYQRAPQMPDSQRGRVAE
Turning to B1, the values for the binding result in assay [1] and in assay [2] were “binds” and “no binding”, respectively.
